Laboratory results from the nanobody polyreactivity screen of Harvey et al. (2022).

Assay: yeast display, Sf9 membrane polyspecificity reagent, FACS + sequencing; frameworks hold sequencing errors
Procedure, shortened: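 A synthetic nanobody library was expressed on Saccharomyces cerevisiae BJ5465 by galactose induction for 36–48 hours. The library was stained for 1 hour at 4 °C with 10% biotinylated, detergent-solubilized Sf9 membrane reagent and enriched with streptavidin microbeads before FACS. Low and high (top ~1%) gates were set on anti-HA fluorescence for expression and streptavidin fluorescence for reagent binding, and each polyreactivity label reflects the gate of origin.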

Sequence	polyreactivity (PSR sort gate)
AVQLVESGGGLVQAGGSLRLSCAASGSIFPWYTMGWYRQAPGKERELVASITKSGARTYYADSVKGRFTISRDNAKNTVYLQMNSLKPEDTAVYYCAAVYPVWKYHYAYWGQGTQVTVSS	high polyreactivity
EDELVESGGGIVQAGGSLRLSCAATGSIIVVNAMVWYRQAPRKERELVAAISRGGITNYADSVKGRFTISRDNAKNTVYLQMNSLKPEDTAVYYCNARGSRWVKPERDYWGQGTQVTVSS	low polyreactivity
EEELVESGGGLVQAGGSLRLSCAASGRTFARNAMGWYRQAPGKERELVAGINFSGGNTYYADSVKGRFTISRDNAKNTVYLQMNSLKPEDTEVYYCAPRRYWEGDYWGQGTQVTVSS	low polyreactivity
EEELVESGGGLVQAGGSLRLSCAASGRTYPNTMGWYRQAPGKERELVAAITTSGTSTRYADSVKGRFTISRDNAKNTVYLQMNSLKPEDTAVYYCATRYSGKTYHYNYWGQGTQVTVSS	high polyreactivity
EEELVESGGGLVQAGGSLRLSCAASGSTFLVYAMGWYRQAPGKERELVAVITYSTVRTYYADSVKGRFTISRDNAKNTVYLQMNSLKPEDTAVYYCNADKEYAVLGQGMDYWGQGTQVSVSS	low polyreactivity
EEELVESGGGLVQAGGSLSLICAASGLTFYIYAMGWYRPAPGKERELVAAITTSGDSTYYADSVKGRFTISRDNAKNTVYLLLNSLKPEDTAVYYGAAAVWHYGRPGYLDSGYDYWGQGTQVSVSS	low polyreactivity
EVHLVESGGCLVQPRGSLRLSCAASGYNYIRYRMGSYRQAPGKVREFVAAISGGSSTNYADSVKGRFTISRDNSKNTVYLQMNSLRAEDTAVYYCAAYKIDSDPRVYWGQGTQVTVSS	low polyreactivity
EVQLQESGGGLVQAGGSLRLSCAASGYTYNEYVMGWYRQATGKERELVAAISGSGGSTYYADSVKGRFTISRDNAKNTVYLQMNSLKPEDTAVYYCAARGYNSRGYDMDYWGQGTQVTVSS	high polyreactivity
EVQLVESGGGLVQPGGSLRLSCEASGYIYSRYRMGWYRQAPGKAREFVAAISGGSSTNYADSVKGRFTISRDNSKNTVYLQMNSLRAEDTAVYYCAAYKIDSDPRVYWGQGTQVTVSS	low polyreactivity
GSTIYADSVKGRFTISRDNAKNTVYLQMNSLKPEDTAVYYCNKDDRNDRTIPGYDPEYDYWGQGTQVTVSS	low polyreactivity
HAQLQESGGGLVQAGGSLRRSCAASGSIFRFSGMGWYRRAPGKERELVASIGFGSITYYADRVKGRFTISRDHANNTVYLQMNSLKPEDTAVYYCAVQVQDESWLDYWGQGTQVTVSC	low polyreactivity
HDQLVESGGGFVQAGGSLRLICAASGSTFIGYAMGWYRQAPGKERELVADISWSGGRTYYADSVKGRFTISRDNEKNTVYLQMNSLKPEDTAVYYCAARGSGHTRSYYWGQGTQVTVSS	high polyreactivity
HDQLVESGGGLVQAGGSLRLTCAASGFIFGAYTMGWYRQAPGKERELVAAISWSGDSTYYADSVKGRFTISRDNAKNTVYLQMNSLKPEDTAVYYCAAVWYWSGFDYWGQGTQVTVSS	high polyreactivity
HEHLQESRGGLVQAGGSLRLSCAASGSIFQATYMGWYRQAPRKEREFVASITYGSITNYADSVKGRFTIGRDNATDTLYLQMNSLKQEDTAVYYWAVDRHYIPAFHYWGQGTQVTVSS	low polyreactivity
HFQLVESGGGIVQAGGSLRLSCAASGRTCFYNAMGWYRQAPGKERELVAAISWSGGSTYYADSVKGRFTISRDNAKNPVSLQMNSLNREDTAVYYCNAAYGRRYDYWGQGTQVTVSS	high polyreactivity
HGQLVESGGGLVQAGGSLRLSCAASGVTFSYYAMGWYRQGPGKDRELVAAITSSAGSTYYADSVKGRFTISRDNAKNTVYLQMNSLKPEDSALYYCNAVYSKLNGGYDYWGQGTQVTVSS	low polyreactivity
HLQLVESGGGLVQAGGSLRLSCAPSGRILRDYDMGWYRQAPGKERELVAAINWSDGSTYYADSVKGRFTISRDNAKNTVYLQMNSLKPDDTAVFYCAASRWRPLERGTSWLHDYWGQGTQVTVSS	low polyreactivity
HVPLVESGGGLVQAGGSLRLSCAASGSIFVWYVMGWYRQAPGKEWELVAAITWSAARTYYADSVKGRFTISRDNAKITVYLQMNSLKPEDTAVYYGAADPVSYQPSSRIFDYWGQATQVTVSS	low polyreactivity
HVQHVESAVGLVQAGGRLRLSCAASGIIFRGNVMGWYIPAPGKERELVAAISGSGGRTYYADSVKGRFTISRDNAKNTVYLLMNSLKPEDTAVYYCAVSGTRTIWGISYRMYYWGQGTQVTVSS	high polyreactivity
HVQLEESGGGEVQAGGSLRLTCAASGLIYTTYAMGWYRPAPGTERELVAAISRRGSRTYYADSVKGRFTISRDNAKNTVYLQMNSLNPEDTAVYYCNALTGSFKTDSFDYWGQGTQVTVSS	high polyreactivity
HVQLGESGGGLVQAGGSLRLSCAASGRNFERNVMGWYRPATGKERELVAGIRSDGDRTYYADSVKGRFTISRDNSKNTVYLQLKSLKPEDTAVYYCAVVWYDKGRQTRYNYWGQGTQVTVSS	high polyreactivity
HVQLKESGGGLVQAGGSLRLSCAASGSIFKVVDMGLYRKAPAKEREFVANIGEGCNTYYADSVKGRFTISRDNAKNTVYLQMNSLKPEDTAVYFYAFVLGTSYRYTYWGQGTLVTVSS	low polyreactivity

Sequence	polyreactivity (PSR sort gate)
HVQLLESGGGLLQAGGSLRLSCMASGSILRDRMSWYLQAPGKEHELVATIYDGGITYYADSMKGRFTISRDNAKNTVYLQMNSLRPEDTAVYYCGASFEGYRYHVYCGQGTQVTVSS	low polyreactivity
HVQLQERAAWCRRAGSLRQSCAASGNISHYYFMGWYRQAPGKERELVAAIAPGSNTYYADSVKGRFTISRDNAKNTVYLQMNSLKPEDTAVCFCAANSTQYTWFDYWGQGTQVPVSS	low polyreactivity
HVQLQESAGGLVQAGGSLRLSCAASGNISYSRNMGWYRQAPGKERELVAAIDRGAITYYADSVKGRFTISRDNATNTVYLQIYSLKPEDTAVYYCAAEYHDRWDHRYWGQGTHVTVSS	high polyreactivity
HVQLQESGGGLEQAGGSLRLSCAASGYISDIGTMGWYRQAPGKEREFVANIVVGSTTNYADSVKGRFTISRDNAKNTVYLQPESGRYRGVLLRGWLLAVGKFTYWGQGTQETVSS	low polyreactivity
HVQLQESGGGLVQAGGSLRLSCAASGYISHADEMGWYRQAPGKEHELVASISNGGSTNYADSVKGRFTISRDNAKNTVYLQMNSLKSEVTAVYYCAAWTGQVDFHYYWGQGTQVSVSS	low polyreactivity
HVQLQESGGGLVQAGGSLRLSCGASGNISYSRSMGCYRQAPGKERELVAAIDRGAITYYADSVKGRFTISRDNAKNTVYLQIYSLKPEDTAVYYCAAVYHDRWDHRYWGQGTQVTVCS	high polyreactivity
HVQLQESGGGLVQARGSLRLSCAATGSIFYRLKMGWHRQAPGKERELVATIDPGSNTYYADSVKGSFTISRDNAKKTVYPQMYSLKPEDTAVYYCAVSAHWTIHYYYWGEGTQVTVSS	high polyreactivity
HVQLVDSGGGLVQAGGSLRLSCAASGSIFRYYTMGWYRQAPGKERELVAAISWSGGRTYYAHSVKGRFTISRDKAKNTVYLQMNSLKPEDTAVYYCAAVRPYYYPLPTVPNLPYDYWGQGTQVTVSS	high polyreactivity
HVQLVEAGGGLVQAGGSLRLSCAASGSTLQYYAMGWYRQAPGKERELVAAITSTGSRTYYADSVKGRFTISRDNAKNTVYLLMNSLKPADTAVYYCAADIYDGEYDYWGQGTQVTVSS	high polyreactivity
HVQLVESAGGLFQEGGSLRVSCAASGGTLNTYAMGRYRQAPGKDREFVSAITTSGASTYYADSVKGRFTISRDNAKNTVYLQMNSLKPEDSAVYYCYCDYWGQGTQVTVSS	low polyreactivity
HVQLVESAGGLVQAGGSLRLSCAASGSILPRYAKGWYRQAPGKERELVAAISWSGGNTYYADSVKGRFTISRDNAKNTVYFQMNSLTPEDTAVSYSAARQYDWVIQGSRVRPVHYDYWGQGTQVNVSS	high polyreactivity
HVQLVESGAGLVQAGGSLRLSCAASGSTLRYYAMGWYRQAPGKERELVAAISTVGSTYYADSVKCRFTISRDNAKNTVNLQMNILKPEDTAVYYCAAEPWANTPGDAGSPFDYWGQGTQVTVSS	low polyreactivity
HVQLVESGGCLFQAGGSLRLSCAASGRIFPGYAMGWYRQAPGKERELFAAINTSGGRTYYADSVKGRFTISGENAKNTVYLQMNSLKPEDTAVSYCAAVYRSRYDYWGQGTQVTVSS	high polyreactivity
HVQLVESGGGLFQAGGRLRVSCAASGNTIWGNAMGGSRQAPGKEREVVAAITGGGDTNYADSVKGRFTISRDNAKNTVYLQMNSLKPEDTAVYYCAADSSEWLLKDDYWGQGTQVTVSS	low polyreactivity
HVQLVESGGGLVQAGGRLRLSCAASGRNFVENAIGWYRQAPGKEWEFVAAISGGGSTDYADSVKGRFTISRDNAKNTVYLQMNSLKPEDTAVYYCNARQVFTTAGREMDYWGQGTQVTVSS	low polyreactivity
HVQLVESGGGLVQAGGSHRLICASSGFTIYYAIAWYRQAPGKESELVASISANGGSTYYADSVKGRFTISRDNAKNTVYLQMNSLKPEDTAVYYCAARGLSGQRRYYWGQGTQVTVSS	high polyreactivity
HVQLVESGGGLVQAGGSLRIICAASVRIFYLYAMGWYRRAPGKERELVATINSGGSTKYADSVKGRFTISRDNAKNSVYLQRNSLKPEDTAVYYCNAKRWKDYYPYQSWKYGYWGQGTQVTVSS	high polyreactivity
HVQLVESGGGLVQAGGSLRISCAASGRTFYSYVMGWYRQAPGKQRQLVAAISSGGGRTYYADSVKGRFTISRDNAKHTVYLQMNSLKPEDTAVYYCNAVTRGTRWGLPYEYWGQGTQVTVSS	high polyreactivity
HVQLVESGGGLVQAGGSLRLICAASVRIFADNAMGWYRQAPGKERELSAAISESGGSTYYADSVKGRFTISRDNAKNTVYLEMNSLKPEDTAVYYCAATAEVHRAEPYDYWGQGTQVTVSS	low polyreactivity
HVQLVESGGGLVQAGGSLRLSCAASGFIFRKYAMGWYRQAPGKERELVAAISGRADSTYYADSVKGRFTISRDNAKNTVYLEMISLKPEDTAVYYCAADWLSKIGKGYDYWGQGTQVTVSS	high polyreactivity
HVQLVESGGGLVQAGGSLRLSCAASGFSFDPYAMGWYRQAPGKERELVAAISDGGSTNYPDSVKGRFTISRDNAKNTVYLQRNSLKPEDTAVYYCAVEYWYVRGTFDDWGQGTQVTVSS	low polyreactivity
